The record followed here is IntAct's records for PubMed 25081058.

B1: Tyrosine-protein phosphatase non-receptor type 18 (Homo sapiens), Q99952-1 (parent)
chain: MSRSLDSARSFLERLEARGGREGAVLAGEFSDIQACSAAWKADGVCSTVAGSRPENVRKNRYKDVLPYDQTRVILSLLQEEGHSDYINGNFIRGVDGSLAYIATQGPLPHTLLDFWRLVWEFGVKVILMACREIENGRKRCERYWAQEQEPLQTGLFCITLIKEKWLNEDIMLRTLKVTFQKESRSVYQLQYMSWPDRGVPSSPDHMLAMVEEARRLQGSGPEPLCVHCSAGCGRTGVLCTVDYVRQLLLTQMIPPDFSLFDVVLKMRKQRPAAVQTEEQYRFLYHTVAQMFCSTLQNASPHYQNIKENCAPLYDDALFLRTPQALLAIPRPPGGVLRSISVPGSPGHAMADTYAVVQKRGAPAGAGSGTQTGTGTGTGARSAEEAPLYSKVTPRAQRPGAHAEDARGTLPGRVPADQSPAGSGAYEDVAGGAQTGGLGFNLRIGRPKGPRDPPAEWTRV

The variants in the assay derive from B1. The note with it: with fbw1a_human BTRC.
As to S423A, the “effect of a mutation on the interaction” value is recorded as “disrupting interaction strength”.

Turning to S419A, the “effect of a mutation on the interaction” value is “decreasing interaction strength”.
